What was measured:
Assay in all cases: co-immunoprecipitation, transfected HEK293T cells, SDS-PAGE/immunoblot
[1] = target: T1, pro-Caspase-2 (UniProt P42575 1-452, limits assumed)
T1 sequence (looked up): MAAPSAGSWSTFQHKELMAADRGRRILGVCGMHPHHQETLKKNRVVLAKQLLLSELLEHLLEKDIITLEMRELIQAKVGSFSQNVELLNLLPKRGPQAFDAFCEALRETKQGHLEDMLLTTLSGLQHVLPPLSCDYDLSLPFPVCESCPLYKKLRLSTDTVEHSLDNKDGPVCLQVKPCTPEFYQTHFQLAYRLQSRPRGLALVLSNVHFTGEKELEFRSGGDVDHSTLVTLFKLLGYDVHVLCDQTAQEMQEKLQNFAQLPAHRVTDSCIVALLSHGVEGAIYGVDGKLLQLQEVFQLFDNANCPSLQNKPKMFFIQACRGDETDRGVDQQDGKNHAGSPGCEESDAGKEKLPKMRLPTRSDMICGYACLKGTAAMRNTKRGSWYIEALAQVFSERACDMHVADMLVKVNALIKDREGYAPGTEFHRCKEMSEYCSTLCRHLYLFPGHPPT
Protocol: (§1) The TUCAN polypeptides were expressed by transient transfection in HEK293T cells together with epitope-tagged pro-caspase-9 or other proteins. […] Cell lysates were prepared from transfected cells and immunoprecipitations were performed using anti-Flag or anti-Myc antibodies, followed by SDS-PAGE/immunoblot analysis.

[2] = target: T2, Cardiak (RIP2) (UniProt O43353 1-540, limits assumed)
T2 construct: also called RICK
T2 sequence (O43353 whole entry): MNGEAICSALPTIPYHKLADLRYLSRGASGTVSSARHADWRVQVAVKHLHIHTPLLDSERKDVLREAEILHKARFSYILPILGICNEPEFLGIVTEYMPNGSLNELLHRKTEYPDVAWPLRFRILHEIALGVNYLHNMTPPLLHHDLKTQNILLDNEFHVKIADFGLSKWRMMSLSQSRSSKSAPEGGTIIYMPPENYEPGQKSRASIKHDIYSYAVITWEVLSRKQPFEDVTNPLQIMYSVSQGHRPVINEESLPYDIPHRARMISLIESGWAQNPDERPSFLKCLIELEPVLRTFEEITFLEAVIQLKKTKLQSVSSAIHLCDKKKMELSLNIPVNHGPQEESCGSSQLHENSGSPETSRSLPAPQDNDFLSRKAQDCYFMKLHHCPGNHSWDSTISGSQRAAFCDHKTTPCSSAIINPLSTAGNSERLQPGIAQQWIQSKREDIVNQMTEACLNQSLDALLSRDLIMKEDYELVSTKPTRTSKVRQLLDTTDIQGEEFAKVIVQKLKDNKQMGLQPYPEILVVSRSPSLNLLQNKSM
Protocol: as §1

[3] = target: T3, CED4 (UniProt P30429 1-549, limits assumed)
T3 sequence (looked up): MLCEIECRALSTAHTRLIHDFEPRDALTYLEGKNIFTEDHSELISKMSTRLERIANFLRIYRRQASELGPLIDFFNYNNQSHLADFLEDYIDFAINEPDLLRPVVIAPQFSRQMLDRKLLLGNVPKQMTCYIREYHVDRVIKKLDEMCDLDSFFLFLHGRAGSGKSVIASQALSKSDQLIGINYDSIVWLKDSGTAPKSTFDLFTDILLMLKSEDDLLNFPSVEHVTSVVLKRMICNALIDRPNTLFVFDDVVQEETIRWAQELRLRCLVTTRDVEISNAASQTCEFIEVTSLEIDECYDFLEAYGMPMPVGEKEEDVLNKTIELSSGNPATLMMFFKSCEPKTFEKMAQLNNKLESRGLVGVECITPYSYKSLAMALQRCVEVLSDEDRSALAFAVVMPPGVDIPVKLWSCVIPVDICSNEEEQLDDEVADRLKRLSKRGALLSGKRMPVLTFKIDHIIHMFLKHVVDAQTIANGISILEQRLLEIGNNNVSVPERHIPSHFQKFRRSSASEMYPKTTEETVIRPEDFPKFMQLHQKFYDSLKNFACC
Protocol: as §1

[4] = target: T4, Nod1 (CARD4) (UniProt Q9Y239 1-953, limits assumed)
T4 construct: also called Nodl
T4 sequence (looked up): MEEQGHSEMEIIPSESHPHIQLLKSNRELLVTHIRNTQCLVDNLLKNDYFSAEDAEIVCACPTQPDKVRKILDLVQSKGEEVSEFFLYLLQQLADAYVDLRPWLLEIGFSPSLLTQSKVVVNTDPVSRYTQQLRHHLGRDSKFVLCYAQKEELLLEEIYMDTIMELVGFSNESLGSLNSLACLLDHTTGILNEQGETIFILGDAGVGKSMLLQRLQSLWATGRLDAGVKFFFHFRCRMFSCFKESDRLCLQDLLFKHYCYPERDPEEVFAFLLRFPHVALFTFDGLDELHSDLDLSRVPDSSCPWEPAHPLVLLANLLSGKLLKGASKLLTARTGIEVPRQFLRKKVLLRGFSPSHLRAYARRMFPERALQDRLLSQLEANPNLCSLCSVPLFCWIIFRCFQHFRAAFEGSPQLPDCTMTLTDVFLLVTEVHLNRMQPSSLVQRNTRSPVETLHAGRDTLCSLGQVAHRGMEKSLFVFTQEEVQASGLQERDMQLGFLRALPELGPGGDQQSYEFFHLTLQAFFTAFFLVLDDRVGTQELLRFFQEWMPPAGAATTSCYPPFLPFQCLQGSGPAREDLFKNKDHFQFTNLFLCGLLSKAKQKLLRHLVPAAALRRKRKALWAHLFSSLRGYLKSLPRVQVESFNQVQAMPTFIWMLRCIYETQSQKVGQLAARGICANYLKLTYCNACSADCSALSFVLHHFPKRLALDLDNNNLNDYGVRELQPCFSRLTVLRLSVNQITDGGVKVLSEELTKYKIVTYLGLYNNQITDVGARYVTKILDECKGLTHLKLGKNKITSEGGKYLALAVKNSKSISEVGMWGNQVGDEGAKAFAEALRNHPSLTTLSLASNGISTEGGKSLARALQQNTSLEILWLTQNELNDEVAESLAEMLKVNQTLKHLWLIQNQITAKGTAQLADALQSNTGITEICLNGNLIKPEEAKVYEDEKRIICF
Protocol: as §1

Measured: binding result

B1: TUCAN (Tumor Up-regulated CARD-containing Antagonist of Caspase Nine), full-length (other)
chain: MMRQRQSHYCSVLFLSVNYLGGTFPGDICSEENQIVSSYASKVCFEIEEDYKNRQFLGPEGNVDVELIDKSTNRYSVWFPTAGWYLWSATGLGFLVRDEVTVTIAFGSWSQHLALDLQHHEQWLVGGPLFDVTAEPEEAVAEIHLPHFISLQGEVDVSWFLVAHFKNEGMVLEHPARVEPFYAVLESPSFSLMGILLRIASGTRLSIPITSNTLIYYHPHPEDIKFHLYLVPSDALLTKAIDDEEDRFHGVRLQTSPPMEPLNFGSSYIVSNSANLKVMPKELKLSYRSPGEIQHFSKFYAGQMKEPIQLEITEKRHGTLVWDTEVKPVDLQLVAASAPPPFSGAAFVKENHRQLQARMGDLKGVLDDLQDNEVLTENEKELVEQEKTRQSKNEALLSMVEKKGDLALDVLFRSISERDPYLVSYLRQQNL
notes: Full-length TUCAN expressed by transient transfection in HEK293T cells; also called full-length TUCAN; CARD-X
no binding: [1] | [2] | [3] | [4]
